The text below walks through data of PMC7315649.

A word on the Kd: it is the concentration at which binding is half-saturated. A lower Kd goes with a tighter complex. Broadly, the koff is a measure of how fast the partners let go of each other. For orientation: kon means the rate constant with which the complex forms.

This assay deals with human plasminogen (human). As to the kind of experiment: SPR; BIAcore T100 at 25°C; plasminogen amine-coupled to a CM-5 chip (5.0 ng/mm^2); dispersin at 2.5–120 μM in HBS-P (10 mM HEPES pH 7.4, 150 mM NaCl, 0.005% P20) at 30 μL/min; 1:1 model.

As to “recombinant dispersin (mature dispersin of enteroaggregative Escherichia coli strain 17-2) (from UniProt P43464 1-265) (natural protein)”, the dissociation constant Kd was 282 nM, the koff turned out to be 0.0016 s⁻¹ and the kon was determined as 5680 M⁻¹ s⁻¹.
